Reference: patent US20230391872A1 (ANAPTYSBIO, published 2023)
Where “and” joins values, the source holds several entries; their conditions need not be identical. Identical values can stand only once.

Columns and labels:
[1] = target: T1, human BTLA on cells (stably transfected 293c18 cells; human peripheral blood T and B cells) (human, UniProt Q7Z6A9 31-289); assay: flow cytometry (MFI) on 293c18 cells stably expressing human BTLA, goat anti-human kappa-PE detection, four-parameter fit [left panel (Hu BTLA 293c18 cells), EC50 box]
T1 construct: whole, on cells; the cells are named under assay; also called cell surface BTLA; full-length human BTLA
Method: (§1) 293c18 cell clone 1E4 stably expressing human BTLA construct or clone 1G5 stably expressing cynomolgus monkey BTLA were harvested with Accutase solution (Millipore Sigma/Sigma-Aldrich) and washed once with Phosphate-Buffered Saline, 1% BSA. 293c18 cynomolgus monkey BTLA cells were loaded with the lipophilic carbocyanine dye, DiD (2 μM, 1,1′-dioctadecyl-3,3,3′,3′-tetramenthylindodicarbocyanine; ThermoFisher Scientific) by rocking gently for 10 minutes at room temperature. DiD-stained cells were washed in PBS, 1% BSA and equal amounts of human BTLA 293c18 cells and cynomolgus monkey BTLA 293c18-DiD-stained cells were mixed. Cells (2×10⁵ total cells/sample) were incubated with the indicated concentrations of purified 6G3 IgG4 (two production lots, APE10840.03 and APE10840.04 (H Chain SEQ ID NO: 144, L Chain SEQ ID NO: 174)) or human IgG4 isotype control antibody specific for hen egg lysozyme with gentle shaking for 10 minutes at 4° C. in FACS buffer (PBS, 1% BSA, 0.02% sodium azide). […] Cells were washed and resuspended in FACS buffer and analyzed for fluorescence on a BD FACSArray (BD Biosciences). DiD stained cells expressing cynomolgus monkey BTLA (FIG. 3) were analyzed for median fluorescence intensity (MFI) separately from cells expressing human BTLA (FIG. 3). […]

[2] = target: β-galactosidase enzyme donor (ED)-tagged human BTLA on Jurkat cells (human, UniProt Q7Z6A9 31-289); assay: cell-based or functional assay
[3] = target: T1, human BTLA on cells (stably transfected …); assay: flow cytometry, DyLight 650-labeled 6G3 IgG4 on human peripheral blood CD4+ T cells
Method: PBMCs were washed and incubated at 2×10⁷ cells/ml in FACS buffer (PBS, 1% BSA, 0.02% sodium azide) with Human BD Fc Block (2.5 μg/1×10⁶ cells, BD Biosciences) and LIVE/DEAD® Fixable Yellow Dead Cell Stain (30 μl, ThermoFisher Scientific) for 10 minutes on ice. Cells were washed once in FACS buffer, resuspended in FACS buffer at 1×10⁷ cells/ml and the following phenotyping antibodies added: Alexa Fluor 488-anti-human CD3E clone SK7, Brilliant Violet 421-anti-human CD4 clone OKT4, Brilliant Violet 785-anti-human CD8 clone SK1, and Brilliant Violet 570-anti-human CD20 clone 2H7 (50 μl each; all from BioLegend, Inc.). […] Samples were washed twice in FACS buffer, resuspended in 150 μl/well FACS buffer, and analyzed for fluorescence on a NovoCyte Flow Cytometer (ACEA Biosciences, Inc.). Data were analyzed using NovoExpress Software (ACEA Biosciences, Inc.). Median fluorescence intensities of anti-BTLA or isotype staining on gated CD4⁺ T cells (FIG. 4), CD8⁺ T cells (FIG. 4), or CD20⁺ B cells (FIG. 4) were graphed and curves fit with log(agonist) vs. response (three parameters) least squares fit for EC₅₀ calculation in GraphPad Prism (GraphPad Software, Inc.).

[4] = target: T2, cynomolgus monkey BTLA on cells (stably transfected 293c18 clone 1G5); cynomolgus peripheral blood T and B … (cynomolgus monkey, UniProt A0A2K5W7M7 31-289); assay: flow cytometry (MFI) on 293c18 cells stably expressing cynomolgus monkey BTLA, goat anti-human kappa-PE detection, four-parameter fit [right panel (Cy BTLA 293c18 cells), EC50 box]
T2 construct: whole, on cells; also called cynomolgus monkey BTLA 293c18 cells
T2 sequence: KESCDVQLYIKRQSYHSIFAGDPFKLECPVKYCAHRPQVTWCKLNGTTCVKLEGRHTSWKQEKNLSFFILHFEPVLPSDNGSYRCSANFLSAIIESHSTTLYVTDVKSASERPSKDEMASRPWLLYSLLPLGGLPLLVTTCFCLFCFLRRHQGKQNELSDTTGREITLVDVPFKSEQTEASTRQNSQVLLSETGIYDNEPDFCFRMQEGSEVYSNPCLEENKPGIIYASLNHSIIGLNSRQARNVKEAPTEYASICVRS
Method: as §1

B1: 6G3 IgG4 anti-BTLA antibody (APE10840 / APE12839 / APE13308) (antibody, V domains shown)
VH: QVQLVQSGAEVKKPGSSVKVSCKASGYVFSTSWMNWVRQAPGQGLEWMGRIYPGDADTNYVGKFKGRVTITADKSTTTAYMELSSLRSEDTAVYFCAKSGTFNFGNYRWYFDVWGKGTTVTVSS
VL: AIQLTQSPSSLSASVGDRVTITCRVSENIYSHLAWYQQKPGKAPKLLIYAATNLALGVPSRFSGSGSGTDYTLTISSLQPEDFATYYCQLFWGPPLTFGGGTKVEIKR
notes: Humanized antibody from a mouse hybridoma, tested as human IgG4 (detected with anti-human kappa); Some assays used labelled lots (DyLight 650, AF647, biotin, DyL488); also called 6G3 antibody; APE10840.03
With B1 the EC50 [1] was 1.69 nM and 1.79 nM, the “EC50, SHP2 recruitment PathHunter Jurkat BTLA signaling assay with U-2 OS hFcγRIa cells” value [2] was 0.0093 µg/mL and the “EC50, SHP2 recruitment PathHunter Jurkat BTLA signaling assay, soluble antibody” value [2] was 0.125 µg/mL. The “fold increase of agonist potency with cell-associated FcγRIa against the assay without FcγRIa” value [2] was roughly 13 fold, the EC50 [3] was roughly 2.4 nM and the EC50 [4] was 2.3 nM.
